B1: minF1; a variant is named by its letters at N, in order (parent)
chain: GAGACCGCAACTGAAAAGTTGTTNNNNAANNNNGGNTNNATTTCTGCACGTAGAAGCAAAAGGC

Variants of: B1
Experiment: fraction ligated after 30 min (ligated reads / total reads); higher = more ligase activity
Settings: with F1*subA RNA substrate (template-directed ligation), 42 °C
Experimental: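 Chip-synthesised pool of minF1 ligase ribozyme variants (single and double substitutions, single to quadruple deletions, bulge and P2 designed variants) was transcribed with T7 and reacted as a pool with excess substrate F1*subA for 30 min at 42 C in 50 mM EPPS pH 8.5, 25 mM MgCl2. Ligated and unligated RNAs were separated by PAGE, barcoded by RT and deep sequenced; fraction ligated = ligated reads / total reads, relative activity = FL / FL of wild-type minF1 (0.76); sequencing FL correlated with PAGE (R2 = 0.98). Sequences are the DNA template of the ribozyme.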

Variant | fraction ligated
TAGATGGTGTG T23A | 0.00451
TCAATGGATGA T23A | 0.00363
TCAAGGAGTGA T23A | 0.00195
TCAAGATGTGA T23A A28T A29G | 0.00482
ACAAGATGTGA A28T A29G | 0.00369
TCAGAGATGTA T23A | 0.00211
TCAATGATGTA T23A | 0.00393
TCAAGGTGTGA | 0.00226
TCAGAGATGTG T23A | 0.00606
TCAATGGAGTG G34T | 0.0438
ACAATATGTGA | 0.00334
TCAAGGATGTG T23A A29T | 0.0062
TCAAGGATGTA A29T | 0.00204
ACAATGATTGA | 0.00348
TCAAGGATTGA T23A | 0.00297
TCAGAGGAGTG T23A | 0.0042
TCAGAGGAGTA T23A G34T | 0.0014
TCAGAGATTGA | 0.00355
ACAATGGAGTG | 0.00309
ACAATGGAGTA | 0.00362
TCAAGATGTGA A29T | 0.00235

Variant | fraction ligated
TCAAGATGTGA A29G | 0.0031
ACAAGGAGTGA A29T | 0.00407
TCAAGGAGTGA A29T | 0.00143
TCAAGGATGTG A29T | 0.00632
TCAAGGATTGA A29T | 0.00468
TCAGAGGGTGA | 0.00299
ACAGAATGTGA | 0.00222
ACAATGGAGTG G34T | 0.0274
TCAGAATGTGA | 0.00302
TCAAGATGTGA | 0.00179
TCAATGGAGTG T23A G34T | 0.0342
AAGATGTGTGA | 0.00241
TCAATGGTGTG | 0.00437
TCAATGGTGTA | 0.00227
TCAATGATGTG | 0.0049
TCAATGATGTA | 0.00254
TCAATGGATGA | 0.00193
TCAATGTGTGA T23A | 0.00162
TCAAGGTGTGA T23A | 0.00305
TCAATGGGTGA | 0.00124
TCAATGGAGTT T23A G34T T37G A40G | 0.00124

Variant | fraction ligated
ACAGAGGAGTA | 0.0028
ACAGAGGAGTG | 0.00401
TCAGAGGTTGA T23A | 0.000867
TCAATGGTTGA T23A | 0.00285
TAGATGGTTGA T23A | 0.00325
TCAGAGGATGA T23A | 0.00378
TAGATGGTTGA | 0.00065
TCAATGGGTGA T23A | 0.00158
ACAGAGATGTA | 0.00268
ACAGAGATGTG | 0.00764
ACAAGGATTGA | 0.00332
TCAATGAGTGA T23A | 0.00315
TCAAGGATTGA | 0.00222
ACAGAGGAGTA G34T | 0.000671
TCAATGGTTGA | 0.00179
TCAGAGGAGTA T23A | 0.00164
ACAAGGATGTG A29T | 0.00671
ACAGATATGTA | 0.00255
TAGATGGTGTA T23A | 0.00161
ACAATGGAGTT G34T T37G | 0.00166
ACAATGGAGTT G34T T37G A40G | 0.00101

Variant | fraction ligated
TCAATGGAGTG | 0.00581
TCAATGGAGTA | 0.00279
TCAGATAGTGA T23A | 0.00511
ACAATGAGTGA | 0.000748
AAGATGGTGTG | 0.00357
TCAATGGAGTA T23A G34T | 0.0178
ACAAGGATGTA A29T | 0.00548
ACAGAGAGTGA | 0.00105
TCAATGGAGTG T23A | 0.0035
TAGATGTGTGA | 0.00395
TCAAGGTGTGA A29T | 0.00119
ACAATGTGTGA | 0.00146
TCAATATGTGA | 0.00184
TCAGAGGTGTA T23A | 0.00248
CAGATGTGTGA | 0.00342
ACAAGGAGTGA | 0.00357
TCAATGGAGTT T23A G34T T37G | 0.00105
TCAGAGAGTGA | 0.00182
TCAATATGTGA T23A | 0.00157
TCAATGGTGTA T23A | 0.00153
